Assays:
[1] = biological target: Max(L) homodimer (UniProt P61244 P61244:2-160); assay: EMSA; 60 nM Max(L), 20 nM DNA; same buffer; 3jc48-3 compound IC50 60.6 uM; settings: tags: His6; chain copies: 2 (stated homodimer); label: 5'-hexachlorofluorescein
Description: (§1) EMSAs. These were performed essentially as described previously (23). Briefly, Ni⁺-agarose-purified His₆-tagged c-Myc bHLH-ZIP domain (residues 353-437) was used for all binding assays as was the His₆-tagged 151 residue isoform of Max, otherwise referred to as Max(S) (residues 2-151) (21). For each binding reaction, the proteins were allowed to heterodimerize at a concentration of 30 nM each in the presence of 20 nM of a 5′-HEX-tagged double-stranded 22-base pair oligonucleotide 5′-hexachlorofluoresceine-[…]-3′ (SEQ ID NO: 1) containing a consensus c-Myc binding site (CACGTG) and the indicated concentration of small molecule inhibitor. Control reactions contained the same oligonucleotide in the presence of 60 nM of the 160 residue isoform of Max referred to as Max(L) (21). All binding reactions were prepared in a buffer consisting of PBS (pH 7.3), 1 mmol/L EDTA, 0.1% NP40, 5% glycerol, 1 mmol/L DTT, and 0.4 mg/mL bovine serum albumin. Electrophoresis was performed on 8% polyacrylamide/bisacrylamide (80:1) gels in […] (23). Each reaction was run on at least three separate occasions.

[2] = biological target: c-Myc bHLH-ZIP/Max(S) heterodimer (UniProt P01106-1;P61244-2 P01106-1:353-437,P61244-2:2-151); assay: EMSA; 30 nM each protein, 20 nM DNA; PBS pH 7.3, 1 mM EDTA, 0.1% NP40, 5% glycerol, 1 mM DTT, 0.4 mg/mL BSA; binding disrupted by 3jc48-3 (compound IC50 34.8 uM); settings: tags: His6 (Myc His6-TEV tag from pET151, removed by TEV in one protocol), label: 5'-hexachlorofluorescein
Description: as §1

c-Myc bHLH-ZIP/Max(S) heterodimer, sequence (P01106 368-452, chain 1 of 2): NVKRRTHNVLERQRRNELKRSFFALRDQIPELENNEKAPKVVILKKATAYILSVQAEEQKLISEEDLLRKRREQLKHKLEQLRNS
c-Myc bHLH-ZIP/Max(S) heterodimer, sequence (P61244 other isoform, or with tags, fused parts or gaps, chain 2 of 2): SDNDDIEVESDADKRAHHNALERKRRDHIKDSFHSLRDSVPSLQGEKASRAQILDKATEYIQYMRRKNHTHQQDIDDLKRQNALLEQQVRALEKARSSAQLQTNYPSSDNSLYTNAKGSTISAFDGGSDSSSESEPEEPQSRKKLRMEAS
Max(L) homodimer, sequence (P61244 2-160, one chain of several): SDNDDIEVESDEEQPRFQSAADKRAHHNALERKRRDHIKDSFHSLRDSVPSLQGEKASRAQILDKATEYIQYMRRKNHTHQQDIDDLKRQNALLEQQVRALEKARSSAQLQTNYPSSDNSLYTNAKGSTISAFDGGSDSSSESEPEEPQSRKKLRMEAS

B1: E-box 22-bp HEX oligonucleotide (dsDNA)
DNA 1: CACCCGGTCACGTGGCCTACAC
DNA 2: GTGTAGGCCACGTGACCGGGTG
B1: binds [1]; binds [2].
